Measured values as given in publication PMC2193694 (The Journal of Experimental Medicine, 2002).

T1: B7-H2mIg (extracellular domain of human B7-H2 linked to mouse IgG2a Fc portion) (human, UniProt O75144 19-256)
T1 sequence: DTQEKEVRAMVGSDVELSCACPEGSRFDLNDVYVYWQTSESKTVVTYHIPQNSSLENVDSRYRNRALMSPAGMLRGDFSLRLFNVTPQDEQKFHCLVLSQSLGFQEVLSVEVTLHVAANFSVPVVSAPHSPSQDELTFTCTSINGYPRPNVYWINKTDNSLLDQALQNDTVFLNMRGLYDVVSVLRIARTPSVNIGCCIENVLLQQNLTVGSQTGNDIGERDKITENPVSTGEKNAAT

B1: ICOSIg (extracellular domain of human ICOS fused to the CH2-CH3 portion of human IgG1) (Fc fusion)
chain: EINGSANYEMFIFHNGGVQILCKYPDIVQQFKMQLLKGGQILCDLTKTKGSGNTVSIKSLKFCHSQLSNNSVSFFLYNLDHSHANYYFCNLSIFDPPPFKVTLTGGYLHIYESQLCCQLK
B2: ICOSIg mutant D64S (Fc fusion)
chain: EINGSANYEMFIFHNGGVQILCKYPDIVQQFKMQLLKGGQILCSLTKTKGSGNTVSIKSLKFCHSQLSNNSVSFFLYNLDHSHANYYFCNLSIFDPPPFKVTLTGGYLHIYESQLCCQLK
B3: ICOSIg mutant F114S (Fc fusion)
chain: EINGSANYEMFIFHNGGVQILCKYPDIVQQFKMQLLKGGQILCDLTKTKGSGNTVSIKSLKFCHSQLSNNSVSFFLYNLDHSHANYYFCNLSISDPPPFKVTLTGGYLHIYESQLCCQLK
B4: ICOSIg mutant F119S (Fc fusion)
chain: EINGSANYEMFIFHNGGVQILCKYPDIVQQFKMQLLKGGQILCDLTKTKGSGNTVSIKSLKFCHSQLSNNSVSFFLYNLDHSHANYYFCNLSIFDPPPSKVTLTGGYLHIYESQLCCQLK
B5: ICOSIg mutant Q50S (Fc fusion)
chain: EINGSANYEMFIFHNGGVQILCKYPDIVQSFKMQLLKGGQILCDLTKTKGSGNTVSIKSLKFCHSQLSNNSVSFFLYNLDHSHANYYFCNLSIFDPPPFKVTLTGGYLHIYESQLCCQLK
B6: ICOSIg mutant K67S (Fc fusion)
chain: EINGSANYEMFIFHNGGVQILCKYPDIVQQFKMQLLKGGQILCDLTSTKGSGNTVSIKSLKFCHSQLSNNSVSFFLYNLDHSHANYYFCNLSIFDPPPFKVTLTGGYLHIYESQLCCQLK
B7: ICOSIg mutant Q49S (Fc fusion)
chain: EINGSANYEMFIFHNGGVQILCKYPDIVSQFKMQLLKGGQILCDLTKTKGSGNTVSIKSLKFCHSQLSNNSVSFFLYNLDHSHANYYFCNLSIFDPPPFKVTLTGGYLHIYESQLCCQLK
B8: ICOSIg homologue replacement mutant RP49-52 (ICOS 49-52 replaced by CD28 49-52) (Fc fusion)
chain: EINGSANYEMFIFHNGGVQILCKYPDIVREFRMQLLKGGQILCDLTKTKGSGNTVSIKSLKFCHSQLSNNSVSFFLYNLDHSHANYYFCNLSIFDPPPFKVTLTGGYLHIYESQLCCQLK
B9: ICOSIg mutant D115S (Fc fusion)
chain: EINGSANYEMFIFHNGGVQILCKYPDIVQQFKMQLLKGGQILCDLTKTKGSGNTVSIKSLKFCHSQLSNNSVSFFLYNLDHSHANYYFCNLSIFSPPPFKVTLTGGYLHIYESQLCCQLK
B10: ICOSIg mutant K69S (Fc fusion)
chain: EINGSANYEMFIFHNGGVQILCKYPDIVQQFKMQLLKGGQILCDLTKTSGSGNTVSIKSLKFCHSQLSNNSVSFFLYNLDHSHANYYFCNLSIFDPPPFKVTLTGGYLHIYESQLCCQLK
B11: ICOSIg mutant F51S (Fc fusion)
chain: EINGSANYEMFIFHNGGVQILCKYPDIVQQSKMQLLKGGQILCDLTKTKGSGNTVSIKSLKFCHSQLSNNSVSFFLYNLDHSHANYYFCNLSIFDPPPFKVTLTGGYLHIYESQLCCQLK

target: B7-H2mIg (extracellular domain of human B7-H2 linked to mouse IgG2a Fc portion) (human) (UniProt O75144); experiment: ELISA

Work on “ICOSIg mutant P117S (from UniProt Q9Y6W8 21-140) (Fc fusion)” yielded a percentage of B7-H2 binding activity (of ICOSIg) of under 0.1%.

target: T1, B7-H2mIg (extracellular domain of human …); experiment: ELISA

Going from B1 to B2, the “percentage of B7-H2 binding activity (of ICOSIg)” value (“percentage” for short) falls from 100% to 6%.

B3 and B4 cannot be ordered by “percentage” value: under 0.1% for the first, under 0.1% for the second.

First: B5
Second: B6
The “percentage” value of the first is higher: 6% for the first, under 0.1% for the second.

Going from B7 to B8, the “percentage” value falls from 33% to 9%.

Compared with B9, B10 is higher in “percentage” value: under 0.1% for the first, 3% for the second.

In the case of B11, the “percentage” value is reported as under 0.1%.
